Test results: patent US9097721B2, “Compositions comprising engineered phosphothreonine affinity reagents, methods of making, and methods of use” (The Board of Trustees of the University of Illinois, priority 2012, dated 2015)
Entries after “also recorded” stand apart in the source; their conditions may differ.

Key:
[1] = Fluorescence-based thermal shift (FTS) assay, melting temperature; assay type: physicochemical; details: mid-point of melting curve
Description: The FTS assay was performed on a MxPro-Mx3005P instrument (Stratagene) following the protocol described by Giuliani et al (Giuliani et al. (2008) Biochemistry 47, 13974-84). It is a real-time assay using the SYBR® Green experiment setting with dissociation curve. The default FRROX filter set was used with an excitation wavelength of 492 nm and emission wavelength of 610 nm. FHA1 domains diluted with PBS to 2× final concentration (i.e. 2 μM and 8 μM) were mixed with 10×SYPRO® Orange protein gel stain (Invitrogen; 5000× concentration in DMSO) to give a final dye concentration of 10×. Then, to the protein wells only, 10 μL of the dye+protein mixture was added along with 10 μL of 1×PBS buffer. In other wells, 10 μL of either the pT peptide or its non-phosphorylated form (diluted to 2× final concentration with PBS, i.e. 100 μM and 500 μM) was added to 10 μL of dye+protein mixture. The final reaction volume was 20 μL with final concentrations of 1 μM or 4 μM of FHA1 domains, 50 μM or 250 μM of pT and non-phosphorylated peptides and 5× final concentration of the SYPRO® Orange. The assay was performed in duplicate in 96 well white PCR plates (BIO-Rad) covered with optically clear Microseal® ‘B’ Film (Bio-Rad) and heated from 25° C. to 95° C. and the melting curve was obtained with fluorescence (R) values plotted on the Y-axis and increasing temperature (° C.) on the X-axis. The mid-point of the curve gives the melting temperature (Tm), which shifts to a higher temperature in the presence of the pT peptide.
To evaluate the thermal stability of the D2 variant, phage particles displaying the D2 variant were heated at various temperatures (30° C., 37° C., 50° C., 60° C., 70° C., 80° C., and 95° C.) prior to incubation with the cognate pT peptide (Rad9-pT) and the non-phosphorylated form of the same peptide (Rad9-T). […] (FIG. 8). The D2 variant (purified six-his tagged protein) was mixed with SYPRO orange dye with or without the Rad9-pT-containing peptide and heated from 25° C. to 95° C. in a real-time PCR experiment known as the Fluorescence-based thermal shift (FTS) assay^36. In this assay, initially, the fluorescence of SYPRO orange dye is quenched in the aqueous environment of a folded protein, but as the protein starts to unfold upon heating, the dye interacts with the hydrophobic core of the protein and its fluorescence increases. Therefore, an increase in fluorescence of the dye is directly proportional to protein unfolding, until a temperature (referred to as Tm here) is reached at which the dye fluorescence decreases due to aggregation and precipitation of the protein. The melting temperature (Tm) of the D2 variant was determined by fluorescence-based thermal shift (FTS) assay to be approximately 5° C. lower than the Tm of the WT FHA1 domain. To improve the thermal stability of the D2 variant, affinity selection was carried out by heating the phage library displaying D2 variants at 50° C. prior to incubation with the pT peptide ligand to favor the isolation of variants that remained folded and functional above 50° C.
The Tm values of FHA1 variants were determined by FTS assay (Giuliani et al. (2008) Biochemistry 47, 13974-84). A representative Tm curve for the G2 variant at 1 μM concentration is shown (solid squares), alone and in the presence of the pT peptide (FIG. 11). […] The Tm values of the thermally stable variants (along with WT and D2 variant) at 1 μM and 4 μM concentration, along with the Tm shift in the presence of two different concentrations (50 μM and 250 μM) of the pT peptide, are listed in Table S3.
The Tm (temperature at which 50% of the protein is unfolded) of the protein domain variants was determined by a fluorescence-based thermal shift assay (Giuliani et al. (2008) Biochemistry 47, 13974-84). The proteins were mixed with SYPRO orange dye, and heated from 25° C. to 95° C. on a real-time thermocycler. […]

[2] = target: T1, Rad9-pT peptide (Saccharomyces cerevisiae, UniProt P14737); experiment: ELISA of GST fusions of FHA1 domains; assay type: binding, yeast; details: expressed in bacterial cytoplasm as GST fusion; listed as WT FHA1 domain
T1 construct: host or cells: chemical synthesis
Description: For production of FHA1-GST fusion protein, BL21 DE3 cells (10 mL; Stratagene) harboring the expression vector was grown overnight at 30° C. using the Overnight Express™ Autoinduction System 1 (Novagen). The next day, cells were lysed using BugBuster® 10× Protein Extraction Reagent (Novagen) following the manufacturer's instructions. Cell lysate (100 μL diluted 1:5 with PBST) was incubated with the biotinylated peptides as described above and detected using anti-GST antibody conjugated to HRP (diluted 1:10,000 with PBST; GE Healthcare).

[3] = target: T1, Rad9-pT peptide; experiment: Phage ELISA of phage-displayed FHA1 domains; assay type: binding, yeast; details: for binding to Rad9-pT peptide when phage-displayed: M13 protein III fusion, DsbA signal sequence; for binding to Rad9-pT peptide when phage-displayed with chaperones: co-expression of dsbA, dsbC, fkpA, skp and surA
Description: To amplify the phage particles displaying the recombinant FHA1 variants, TG1 bacterial cells (5 mL; Stratagene) harboring the phagemid DNA were infected at mid-log (OD600nm=0.5-0.6) with M13K07 helper phage (New England Biolabs) at a multiplicity of infection (MOI) of 20 for 1 h at 37° C. at 150 rpm. Infected cells were centrifuged, and the pellet was resuspended in fresh Luria Bertani medium (LB: 10 g Tryptone, 5 g Yeast extract, and 10 g NaCl per liter) supplemented with 50 μg/mL carbenicillin and 50 μg/ml kanamycin, and phage were amplified overnight at 30° C. at 250 rpm. All of the phage ELISA steps were performed at room temperature. Biotinylated peptides (100 μL, 5 μg/mL) were immobilized on Nunc MaxiSorp flat-bottom 96 well plates (Thermo Fisher Scientific) via NeutrAvidin™ Biotin binding protein (100 μL, 10 μg/mL; Thermo Fisher Scientific) and blocked with 2% skim milk in 1×PBS (200 μL per well). After washing with Phosphate Buffered Saline (PBS: 0.14 M Sodium Chloride, 0.003 M Potassium Chloride, 0.002 M Potassium Phosphate, and 0.01 M Sodium Phosphate), the wells were incubated with the phage supernatant (100 μL of phage diluted 1:2 with PBS containing 0.1% Tween 20 (PBST)) for 1 h and washed three times with PBST. The binding phage were detected using anti-M13 antibody conjugated to horse radish peroxidase (HRP) (GE Healthcare) diluted 1:5000 with PBST. After washing away the unbound antibody, the chromogenic substrate for HRP; 2,2′-Azinobis (3-ethylbenzothiazoline-6-Sulfonic Acid) diammonium salt (Thermo Fisher Scientific), supplemented with hydrogen peroxide was added (100 μL per well), and the absorbance of the green colored complex was measured at 405 nm on POLARstar OPTIMA microtiter plate reader (BMG Labtech).

- binding to Rad9-pT peptide when phage-displayed [3]: non-functional
- binding to Rad9-pT peptide when phage-displayed ([3]; listed as WT FHA1 domain): did not bind
- binding to Rad9-pT peptide when phage-displayed ([3]; listed as wild-type (WT) FHA1 domain): no binding was detected
- binding to Rad9-pT peptide when phage-displayed via TorA signal sequence ([3]; listed as WT FHA1 domain): only partially restored
- binding to Rad9-pT peptide when phage-displayed with chaperones [3]: remained nonfunctional
- binding to Rad9-pT peptide when phage-displayed with chaperones ([3]; listed as WT FHA1 domain): did not restore the activity
B1: WT: N-terminal FHA1 domain of S. cerevisiae Rad53 protein kinase, residues 1-170 (SEQ ID NO:7) (protein, listed as Saccharomyces cerevisiae)
chain: MENITQPTQQSTQATQRFLIEKFSQEQIGENIVCRVICTTGQIPIRDLSADISQVLKEKRSIKKVWTFGRNPACDYHLGNISRLSNKHFQILLGEDGNLLLNDISTNGTWLNGQKVEKNSNQLLSQGDEITVGVGVESDILSLVIFINDKFKQCLEQNKVDRIRSNLKNT
- Tm (° C.) ([1]; protein concentration 1 μM): 66.7 °C
- Tm (° C.) ([1]; protein concentration 4 μM): 66.4 °C
- binding of GST fusion to Rad9-pT peptide [2]: bound specifically; also recorded: showed specific binding
- binding to Rad9-pT peptide when phage-displayed via TorA signal sequence [3]: only detected when the phage particles were concentrated 50 times
